Results: patent US20220041665A1, “POLYNUCLEOTIDE AND USES THEREOF” (Helsingin yliopisto, priority 2019, published 2022)

Key:
Type in all cases: cell-based, human
seipin-mEGFP = assay: FACS screen of auxin perceptive proteins and degrons (mean GFP intensity) in A431 cell pools
Procedure: To search for an improved AID system to solve the issue, a pipeline was first established in human A431 cells to screen AID components (FIG. 2A). Various auxin perceptive proteins and degrons were selected for screening. Several TIR1 and AFB2 proteins from different plant species were tested, as well as degrons derived from AtIAA17 (SEQ ID NO: 3), these including amino acid (aa.) 65-132 (miniAID), aa. 62-109, aa. 71-114. All these degrons were included in the screen. […] These high affinity fragments were tested, assuming higher affinity might translate into more efficient inducible degradation. Degrons with KR dipeptide deletions were tested to see if they would have an effect on enhancing IAA binding affinity, IAA-inducible depletion or as part of a nuclear localization signal. PB1 domain of the AUX/IAA proteins has not been implicated in auxin-inducible degradation, so several other degrons with PB1 domain sequences homologous to miniAID were also tested.
A431 cell pools were generated to stably express different combinations of auxin perceptive protein and degron-fused seipin. Cells were cotransfected with a mixture of three vectors composed of pSH-EFIRES-P expressing an auxin perceptive protein, pSH-EFIRES-B expressing a degron-fused seipin, and pCas9-sgAAVS1 at ratio 3:3:4. Transfected cells were passaged 4-6 h after transfection at 1:5 into 6-well plates. On the next day, cells were selected with 1 μg/ml puromycin (Sigma, P8833) for 2 days, and with 5 μg/ml blasticidin (Gibco, A1113904) for 2 days, then with both antibiotics for at least 6 days before using for FACS analysis.
(§1) For FACS analysis, cells were seeded at 1:5 (for A431) or 1:3 (for A549) into 6-well plate in medium without selection on day 0. On day 1, medium was changed to 2 ml fresh medium without (for 0 h and 1 h IAA samples) or with (for 16 h IAA samples) 0.5 mM IAA. On day 2, the 1 h samples were supplemented with 0.5 ml medium containing 2.5 mM IAA (final 0.5 mM) and incubated for 1 h at 37° C. After treatment, cells were detached with 0.5 ml trypsin at 37° C. for 5-8 min (A549) or 8-12 min (A431), put on ice, and transferred to 1.5 ml Eppendorf tubes containing 0.5 ml serum-free CO2 independent medium (Gibco). The cell suspensions were centrifuged at 4° C., resuspended in 0.3 ml ice-cold serum-free FluoroBrite DMEM (Gibco) and stored on ice prior to FACS analysis. FACS analysis was performed on a BD Influx cell sorter (BD Biosciences-US) with 100 μm nozzle at 4-8° C. using BD FACS Sortware. Cells were gated with SSC, FSC and trigger pulse width for singlets and 100 000 cells were analyzed for each sample. GFP was excited with 488 nm laser and detected with 530/40 detector; mCherry was excited with 561 nm lasers and detected with 615/20 detector. Data was analyzed with BD FACS Sortware. Background subtracted mean fluorescence intensity was used for analysis.

[1] = system: endogenous target proteins tagged with miniIAA7-mEGFP; assay: FACS of mean GFP intensity in cells with endogenously miniIAA7-mEGFP-tagged targets and auxin perceptive proteins
Procedure: as §1
Dynein heavy chain (DHC1) and epidermal growth factor receptor (EGFR) were chosen as the first targets. DHC1 is an essential protein that could not be rapidly depleted by using the OsTIR1-miniAID system in a previous study (Natsume et al., 2016, Cell Rep. 15, 210-218). EGFR is a transmembrane receptor with a canonical function in EGF uptake that can be acutely assessed after protein depletion. Endogenous target loci were tagged homozygously in human cells with miniIAA7-mEGFP through Cas9-mediated homology-directed repair (FIG. 3A). DHC1 was tagged homozygously but it was only possible to tag EGFR heterozygously in A431 cells, likely due to its high copy numbers in this cell type (data not shown). […]
Then the overall performance of the AtAFB2-miniIAA7 system in depleting different endogenous proteins was evaluated. […]

[2] = system: A549 cells with tagged EGFR; assay: EGF uptake in A549 cells with tagged EGFR; details: EGFR-OsTIR1 cells
Procedure: A549 cells were seeded at 0.4×10^5 cells per 4-well for 3 days. Medium was changed to fresh medium with or without 0.5 mM IAA for 1 h. Cells were washed twice with ice-cold serum free medium with 1% BSA and 0.2 ml of 2 μg/ml Alexa Fluor™ 647 EGF complex (ThermoFisher, E35351) in serum free medium with 1% BSA was added. Cells were further incubated at 37° C. for 20 min before harvesting with trypsin. Samples were kept on ice before FACS analysis. Alexa Fluor™ 647 was excited with 640 nm laser and detected with 720/40 detector, analysing 20 000 cells per sample. Negative control samples were cells incubated in medium without EGF complex. Background subtracted mean fluorescence intensity was used for analysis.

B1: miniIAA7: degron composed of AtIAA7 (SEQ ID NO: 1) amino acids 37-104 (protein, listed as Arabidopsis thaliana)
chain: GFSETVDLMLNLQSNKEGSVDLKNVSAVPKEKTTLKDPSKPPAKAQVVGWPPVRNYRKNMMTQQKTSS
reduction of GFP at 1 h IAA (seipin-mEGFP; AtAFB2 expressing cells, 1 h IAA): best reduction of GFP
efficiency of protein reduction compared to miniAID (seipin-mEGFP; in combination with AtAFB2, 1 h IAA): over 3 fold

B2: AtAFB2: Arabidopsis thaliana AFB2, auxin perceptive F-box protein (SEQ ID NO: 96) (protein, listed as Arabidopsis thaliana)
chain: MNYFPDEVIEHVFDFVTSHKDRNAISLVCKSWYKIERYSRQKVFIGNCYAINPERLLRRFPCLKSLTLKGKPHFADFNLVPHEWGGFVLPWIEALARSRVGLEELRLKRMVVTDESLELLSRSFVNFKSLVLVSCEGFTTDGLASIAANCRHLRDLDLQENEIDDHRGQWLSCFPDTCTTLVTLNFACLEGETNLVALERLVARSPNLKSLKLNRAVPLDALARLMACAPQIVDLGVGSYENDPDSESYLKLMAVIKKCTSLRSLSGFLEAAPHCLSAFHPICHNLTSLNLSYAAEIHGSHLIKLIQHCKKLQRLWILDSIGDKGLEVVASTCKELQELRVFPSDLLGGGNTAVTEEGLVAISAGCPKLHSILYFCQQMTNAALVTVAKNCPNFIRFRLCILEPNKPDHVTSQPLDEGFGAIVKACKSLRRLSLSGLLTDQVFLYIGMYANQLEMLSIAFAGDTDKGMLYVLNGCKKMKKLEIRDSPFGDTALLADVSKYETMRSLWMSSCEVTLSGCKRLAEKAPWLNVEIINENDNNRMEENGHEGRQKVDKLYLYRTVVGTRMDAPPFVWIL
auxin-inducible depletion at 1 h IAA and at longer times ([1]; DHC1 (A431) and EGFR (A549) tagged with miniIAA7-mEGFP): efficient auxin-inducible depletion
basal degradation at 0 h IAA ([1]; DHC1 (A431) and EGFR (A549) tagged with miniIAA7-mEGFP, 0 h IAA): minimal basal degradation
target protein level before IAA addition, compared to OsTIR1 (seipin-mEGFP; miniAID as degron, 0 h IAA): over 5 fold
basal depletion (seipin-mEGFP; miniAID as degron, 0 h IAA, compared to OsTIR1): minimal basal depletion
auxin-inducible depletion at 1 h IAA (seipin-mEGFP; miniAID as degron, 1 h IAA (0.5 mM)): inefficient
auxin-inducible depletion at 16 h IAA, compared to OsTIR1 (seipin-mEGFP; miniAID as degron, 16 h IAA (0.5 mM)): similar

B3: OsTIR1: TIR1 derived from Oryza sativa, auxin perceptive protein (protein)
chain: MTYFPEEVVEHIFSFLPAQRDRNTVSLVCKVWYEIERLSRRGVFVGNCYAVRAGRVAARFPNVRALTVKGKPHFADFNLVPPDWGGYAGPWIEAAARGCHGLEELRMKRMVVSDESLELLARSFPRFRALVLISCEGFSTDGLAAVASHCKLLRELDLQENEVEDRGPRWLSCFPDSCTSLVSLNFACIKGEVNAGSLERLVSRSPNLRSLRLNRSVSVDTLAKILLRTPNLEDLGTGNLTDDFQTESYFKLTSALEKCKMLRSLSGFWDASPVCLSFIYPLCAQLTGLNLSYAPTLDASDLTKMISRCVKLQRLWVLDCISDKGLQVVASSCKDLQELRVFPSDFYVAGYSAVTEEGLVAVSLGCPKLNSLLYFCHQMTNAALVTVAKNCPNFTRFRLCILEPGKPDVVTSQPLDEGFGAIVRECKGLQRLSISGLLTDKVFMYIGKYAKQLEMLSIAFAGDSDKGMMHVMNGCKNLRKLEIRDSPFGDAALLGNFARYETMRSLWMSSCNVTLKGCQVLASKMPMLNVEVINERDGSNEMEENHGDLPKVEKLYVYRTTAGARDDAPNFVKIL
basal depletion at 0 h IAA ([1]; EGFR-OsTIR1 cells (A549), 0 h IAA): severe basal depletion
IAA-independent reduction of EGF uptake [2]: severe IAA-independent reduction
